Data reported in paper PMC7577714, “Regulation of chaperone function by coupled folding and oligomerization” (Science Advances, 2020).

Key:
Skp(V117P) (E. coli) = Skp(V117P) (E. coli) (UniProt P0AEU7); experiment: solution NMR (signal intensities of monomer and trimer) + SEC-MALS; fraction of monomer against total Skp concentration, 25°C, 20 mM MES pH 6.5, 150 mM NaCl; monomer to trimer; C0.5 is the protein concentration at which half of the molecules are monomeric
[1] = target: tOmpA, the eight-stranded transmembrane domain of OmpA (residues 1 to 177); experiment: NMR quantification of Skp-bound tOmpA after complex assembly (holdase assay); excess of denatured [U-2H,15N]-tOmpA added dropwise to unlabeled Skp in 20 mM MES pH 6.5, 150 mM NaCl, aggregate spun down, tOmpA signals in 2D [15N,1H]-TROSY of the supernatant, 37°C, normalised to Skp(WT)
[2] = target: the molecule itself; experiment: solution NMR (signal intensities of monomer and trimer) + SEC-MALS; fraction of monomer against total Skp concentration, 25°C, 20 mM MES pH 6.5, 150 mM NaCl; monomer to trimer; C0.5 is the protein concentration at which half of the molecules are monomeric
[3] = target: the molecule itself; experiment: SEC-MALS; Skp variants alone, elution concentration ≃80 μM, 25°C, 20 mM MES pH 6.5, 150 mM NaCl; monomer to trimer
P0AEU7 [4] = experiment: as above
[5] = target: the molecule itself; experiment: as above; remark: listed apart in the source
[6] = target: the molecule itself; experiment: solution NMR (signal intensities of monomer and trimer) + SEC-MALS; fraction of monomer against total Skp concentration, 25°C, 20 mM MES pH 6.5, 150 mM NaCl; monomer to trimer; C0.5 is the protein concentration at which half of the molecules are monomeric; remark: listed apart in the source
P0AEU7 [7] = experiment: solution NMR (signal intensities of monomer and trimer); Skp variants alone at 37°C, 20 mM MES pH 6.5, 150 mM NaCl; monomer to trimer; settings: other: solution NMR (signal intensities of monomer and trimer)

| Molecule | C0.5 (Skp(V117P) (E. coli)) | Skp activity (% of WT), amount of Skp-bound tOmpA [1] | C0.5 [2] | Trimer (%) at c ≃ 80 μM [3] | Monomer (%) at c ≃ 80 μM (P0AEU7 [4]) | stoichiometry N [5] | stoichiometry N [6] | monomer (%) at 1 mM, 37°C (P0AEU7 [7]) | monomer (%) at 37°C (P0AEU7 [7]) |
| --- | --- | --- | --- | --- | --- | --- | --- | --- | --- |
| Skp(V117P) (from UniProt P0AEU7 21-161) (natural protein) | > 1000 µM | 1 % of WT | – | – | – | – | – | – | – |
| Skp(WT), seventeen kilodalton protein, periplasmic chaperone of Escherichia coli (natural protein, E. coli, UniProt P0AEU7 21-161, looked up, Stands in a monomer-trimer equilibrium; the active form is the homotrimer; The thrombin-cleavable His6-tag of pET28b was not cleaved; Isotope-labelled for NMR in some samples; source: E. coli BL21-(λ DE3)-Lemo, purified (Ni-NTA, SEC); not shown: His6, N-terminal, kept) ADKIAIVNMGSLFQQVAQKTGVSNTLENEFKGRASELQRMETDLQAKMKKLQSMKAGSDRTKLEKDVMAQRQTFAQKAQAFEQDRARRSNEERGKLVTRIQTAVKSVANSQDIDLVVDANAVAYNSSDVKDITADVLKQVK | – | 100 % of WT | 1.5 µM | 97% | 3% | 3 | – | – | – |
| Skp(A103R) (natural protein, E. coli, UniProt P0AEU7 21-161, looked up, Monomer-trimer equilibrium shifted toward the monomer; source: E. coli BL21-(λ DE3)-Lemo, purified (Ni-NTA, SEC); not shown: His6, N-terminal, kept) ADKIAIVNMGSLFQQVAQKTGVSNTLENEFKGRASELQRMETDLQAKMKKLQSMKAGSDRTKLEKDVMAQRQTFAQKAQAFEQDRARRSNEERGKLVTRIQTRVKSVANSQDIDLVVDANAVAYNSSDVKDITADVLKQVK | – | 87 % of WT | 7 ± 2 µM | 86% | 14% | – | 3 | – | – |
| Skp(A108R) (natural protein, E. coli, UniProt P0AEU7 21-161, looked up, Fully monomeric up to 1 mM; source: E. coli BL21-(λ DE3)-Lemo, purified (Ni-NTA, SEC); not shown: His6, N-terminal, kept) ADKIAIVNMGSLFQQVAQKTGVSNTLENEFKGRASELQRMETDLQAKMKKLQSMKAGSDRTKLEKDVMAQRQTFAQKAQAFEQDRARRSNEERGKLVTRIQTAVKSVRNSQDIDLVVDANAVAYNSSDVKDITADVLKQVK | – | 1 % of WT | > 1000 µM | – | – | – | – | – | – |
| Skp(A103L) (natural protein, E. coli, UniProt P0AEU7 21-161, looked up, Monomer-trimer equilibrium essentially as the wild type; source: E. coli BL21-(λ DE3)-Lemo, purified (Ni-NTA, SEC); not shown: His6, N-terminal, kept) ADKIAIVNMGSLFQQVAQKTGVSNTLENEFKGRASELQRMETDLQAKMKKLQSMKAGSDRTKLEKDVMAQRQTFAQKAQAFEQDRARRSNEERGKLVTRIQTLVKSVANSQDIDLVVDANAVAYNSSDVKDITADVLKQVK | – | 100 % of WT | 1.5 µM | 94% | 6% | – | 3 | – | – |
| Skp(A108L) (natural protein, E. coli, UniProt P0AEU7 21-161, looked up, Monomer-trimer equilibrium strongly shifted toward the monomer; also called Skp(108L); source: E. coli BL21-(λ DE3)-Lemo, purified (Ni-NTA, SEC); not shown: His6, N-terminal, kept) ADKIAIVNMGSLFQQVAQKTGVSNTLENEFKGRASELQRMETDLQAKMKKLQSMKAGSDRTKLEKDVMAQRQTFAQKAQAFEQDRARRSNEERGKLVTRIQTAVKSVLNSQDIDLVVDANAVAYNSSDVKDITADVLKQVK | – | 55 % of WT | 80 ± 20 µM | 47% | 53% | – | 3 | around 95% monomer at a concentration of 1 mM | more than 80% in its monomeric state |
